Reference: FireProtDB (doi:10.1093/protein/12.8.663)

Details: Homo sapiens; pH 2.7; Thermal; DSC; glycine 0.05 M; reversible: yes; whole UniProt chain shown

B1: Lysozyme C wild type, P61626 (protein)
chain: MKALIVLGLVLLSVTVQGKVFERCELARTLKRLGMDGYRGISLANWMCLAKWESGYNTRATNYNAGDRSTDYGIFQINSRYWCNDGKTPGAVNACHLSCSALLQDNIADAVACAKRVVRDPQGIRAWVAWRNRCQNRDVRQYVQGCGV
Tm: 64.9 °C
heat capacity change of unfolding: 1.58 kcal/mol/K
unfolding enthalpy (calorimetric): 114 kcal/mol
